One data set addresses T1, APG01658.1 (Staphylococcus sp.).
T1 chain: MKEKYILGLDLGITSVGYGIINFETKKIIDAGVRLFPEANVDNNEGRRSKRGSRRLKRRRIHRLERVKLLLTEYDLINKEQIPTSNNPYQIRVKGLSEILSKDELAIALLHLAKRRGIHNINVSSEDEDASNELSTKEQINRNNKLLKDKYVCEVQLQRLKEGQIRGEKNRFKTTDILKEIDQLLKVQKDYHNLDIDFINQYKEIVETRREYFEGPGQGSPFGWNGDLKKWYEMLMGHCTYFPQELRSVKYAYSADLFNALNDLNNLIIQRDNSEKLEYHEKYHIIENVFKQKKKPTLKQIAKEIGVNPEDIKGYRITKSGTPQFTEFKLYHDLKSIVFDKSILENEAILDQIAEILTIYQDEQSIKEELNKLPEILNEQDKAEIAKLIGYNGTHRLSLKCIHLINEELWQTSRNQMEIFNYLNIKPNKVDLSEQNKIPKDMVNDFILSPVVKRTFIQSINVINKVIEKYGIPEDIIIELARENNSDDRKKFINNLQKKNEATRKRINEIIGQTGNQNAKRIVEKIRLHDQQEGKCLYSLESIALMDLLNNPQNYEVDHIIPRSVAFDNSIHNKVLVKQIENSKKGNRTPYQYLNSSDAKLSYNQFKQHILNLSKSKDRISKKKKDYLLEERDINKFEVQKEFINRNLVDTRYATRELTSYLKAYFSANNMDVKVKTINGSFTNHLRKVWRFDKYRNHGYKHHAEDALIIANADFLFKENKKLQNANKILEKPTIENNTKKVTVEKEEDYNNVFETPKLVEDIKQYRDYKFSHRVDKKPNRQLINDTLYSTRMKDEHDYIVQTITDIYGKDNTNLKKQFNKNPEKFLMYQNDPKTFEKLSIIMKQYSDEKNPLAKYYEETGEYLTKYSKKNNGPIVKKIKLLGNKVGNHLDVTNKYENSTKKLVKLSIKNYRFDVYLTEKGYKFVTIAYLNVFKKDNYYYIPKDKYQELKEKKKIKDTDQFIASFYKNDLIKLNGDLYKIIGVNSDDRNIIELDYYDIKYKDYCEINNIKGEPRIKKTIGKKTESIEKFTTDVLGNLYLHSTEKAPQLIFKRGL
Kind of data set: cell_activity; PAM SEQ ID NO 44, 3' of target. The following applies: tags: N-term SV40 NLS and 3xFLAG, C-term 2x nucleoplasmin NLS in HEK293T.

The next data set deals with T2, APG06646.1 (Bacillus sp.).
T2 chain: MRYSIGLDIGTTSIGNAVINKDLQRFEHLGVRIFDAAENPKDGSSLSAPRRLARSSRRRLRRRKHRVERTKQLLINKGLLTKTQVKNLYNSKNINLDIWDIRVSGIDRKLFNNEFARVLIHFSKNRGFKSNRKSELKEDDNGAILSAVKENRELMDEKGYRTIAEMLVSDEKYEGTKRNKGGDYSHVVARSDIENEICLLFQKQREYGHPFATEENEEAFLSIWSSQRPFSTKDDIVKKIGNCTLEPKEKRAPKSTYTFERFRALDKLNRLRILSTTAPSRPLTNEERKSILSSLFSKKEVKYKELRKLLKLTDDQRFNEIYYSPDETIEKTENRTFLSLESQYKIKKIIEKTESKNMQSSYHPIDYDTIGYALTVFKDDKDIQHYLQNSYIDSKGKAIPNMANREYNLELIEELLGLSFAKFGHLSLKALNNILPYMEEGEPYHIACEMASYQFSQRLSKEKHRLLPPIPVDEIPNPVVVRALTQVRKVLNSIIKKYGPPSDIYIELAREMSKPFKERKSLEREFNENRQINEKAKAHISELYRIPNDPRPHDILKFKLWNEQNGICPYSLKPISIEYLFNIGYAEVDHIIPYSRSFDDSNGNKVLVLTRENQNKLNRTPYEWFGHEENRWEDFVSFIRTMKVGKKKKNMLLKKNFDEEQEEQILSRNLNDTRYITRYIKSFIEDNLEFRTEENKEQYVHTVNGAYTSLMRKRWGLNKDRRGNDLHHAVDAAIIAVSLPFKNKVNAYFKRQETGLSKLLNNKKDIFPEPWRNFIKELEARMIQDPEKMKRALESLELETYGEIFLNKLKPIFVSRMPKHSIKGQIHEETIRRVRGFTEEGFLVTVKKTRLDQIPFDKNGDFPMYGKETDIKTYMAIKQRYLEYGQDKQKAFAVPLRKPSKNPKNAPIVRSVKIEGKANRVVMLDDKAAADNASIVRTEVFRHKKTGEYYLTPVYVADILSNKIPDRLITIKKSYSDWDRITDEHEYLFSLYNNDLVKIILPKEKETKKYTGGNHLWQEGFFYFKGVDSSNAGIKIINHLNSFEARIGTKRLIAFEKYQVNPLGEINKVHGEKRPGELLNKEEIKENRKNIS
The experiment in a line: cell_activity; PAM NNNNC 3'. Conditions: tags: N-term SV40 NLS and 3xFLAG, C-term 2x nucleoplasmin NLS in HEK293T.

B1: guide 423 ; RelA target 486 (ssRNA ; dsDNA)
RNA: ACAGUGCGCAUCUCCCUGGUCACCGUUUUAGUACUCUGUAAUUUUAGGUAUGAAAGUCAUACCUAAAAUUACAGAAUCUACUGAAACAAGACUAUAUGUCGUGUUUAUCCCACUAAUUUAUUAGUGGGAUUUU
DNA 1: ACAGTGCGCATCTCCCTGGTCACC
DNA 2: GGTGACCAGGGAGATGCGCACTGT
Molecule B1 had an activity in the data set with APG01658.1 of 10 % editing.

B2: guide 428 ; AurkB target 491 (ssRNA ; dsDNA)
RNA: GGCUGGGCCAUUAAAACCUCUCCAGUUUUAGUACUCUGUAAUUUUAGGUAUGAAAGUCAUACCUAAAAUUACAGAAUCUACUGAAACAAGACUAUAUGUCGUGUUUAUCCCACUAAUUUAUUAGUGGGAUUUU
DNA 1: GGCTGGGCCATTAAAACCTCTCCA
DNA 2: TGGAGAGGTTTTAATGGCCCAGCC
As to B2, in the data set with APG01658.1, the activity worked out at 13.1 % editing.

B3: guide 462 ; AurkB target 523 (ssRNA ; dsDNA)
RNA: GUUUUAAUGGCCCAGCCUCACACCCGCCAUAAUUCCUCUGUAAAACUUAAAGAAGGUUUAUAGAGUUAUUAUGGUAAGGCAAUAUGCCGUGGCGUUGGGGAUCGCCUAUGUCCGGUUUUACCGGAUCUCCCUAAAGGUGACUAACUUUGGUUAGUCACCUUUUU
DNA 1: GTTTTAATGGCCCAGCCTCACACCC
DNA 2: GGGTGTGAGGCTGGGCCATTAAAAC
The molecule B3 displayed an activity with APG06646.1 of 10.9 % editing.

B4: guide 450 ; AurkB target 493 (ssRNA ; dsDNA)
RNA: CAUGGCAGUACAUUAGAGCAGCCAUAAUUCCUCUGUAAAACUUAAAGAAGGUUUAUAGAGUUAUUAUGGUAAGGCAAUAUGCCGUGGCGUUGGGGAUCGCCUAUGUCCGGUUUUACCGGAUCUCCCUAAAGGUGACUAACUUUGGUUAGUCACCUUUUU
DNA 1: CATGGCAGTACATTAGAGCA
DNA 2: TGCTCTAATGTACTGCCATG
On to B4, for which the activity with APG06646.1 worked out at 7.94 % editing.

B5: guide 451 ; TRA target 512 (ssRNA ; dsDNA)
RNA: CCCUGGCUGUGCACAUUCCCUCCUGGCCAUAAUUCCUCUGUAAAACUUAAAGAAGGUUUAUAGAGUUAUUAUGGUAAGGCAAUAUGCCGUGGCGUUGGGGAUCGCCUAUGUCCGGUUUUACCGGAUCUCCCUAAAGGUGACUAACUUUGGUUAGUCACCUUUUU
DNA 1: CCCTGGCTGTGCACATTCCCTCCTG
DNA 2: CAGGAGGGAATGTGCACAGCCAGGG
In the case of B5, the activity with APG06646.1 is 7.03 % editing.

The values are drawn from patent US20220364074, “RNA-GUIDED NUCLEASES AND ACTIVE FRAGMENTS AND VARIANTS THEREOF AND METHODS OF USE” (LIFEEDIT THERAPEUTICS, INC., published 2022).
